Results reported in patent publication US9739779B2, “Methods of screening for Janus kinase 3 interacting compounds” (priority 2013, dated 2017).
One block for each molecule: values may come before it.

What was measured:
P-Villin = biological target: T1, P-Villin (Homo sapiens, UniProt P09327); test: Multiplate ELISA binding of GST-Jak3 and truncated Jak3 fusion proteins to P-Villin
T1 construct: made in house; host or cells: E. coli TKX1 (pGEX2T vector)
T1 sequence (P09327 1-827): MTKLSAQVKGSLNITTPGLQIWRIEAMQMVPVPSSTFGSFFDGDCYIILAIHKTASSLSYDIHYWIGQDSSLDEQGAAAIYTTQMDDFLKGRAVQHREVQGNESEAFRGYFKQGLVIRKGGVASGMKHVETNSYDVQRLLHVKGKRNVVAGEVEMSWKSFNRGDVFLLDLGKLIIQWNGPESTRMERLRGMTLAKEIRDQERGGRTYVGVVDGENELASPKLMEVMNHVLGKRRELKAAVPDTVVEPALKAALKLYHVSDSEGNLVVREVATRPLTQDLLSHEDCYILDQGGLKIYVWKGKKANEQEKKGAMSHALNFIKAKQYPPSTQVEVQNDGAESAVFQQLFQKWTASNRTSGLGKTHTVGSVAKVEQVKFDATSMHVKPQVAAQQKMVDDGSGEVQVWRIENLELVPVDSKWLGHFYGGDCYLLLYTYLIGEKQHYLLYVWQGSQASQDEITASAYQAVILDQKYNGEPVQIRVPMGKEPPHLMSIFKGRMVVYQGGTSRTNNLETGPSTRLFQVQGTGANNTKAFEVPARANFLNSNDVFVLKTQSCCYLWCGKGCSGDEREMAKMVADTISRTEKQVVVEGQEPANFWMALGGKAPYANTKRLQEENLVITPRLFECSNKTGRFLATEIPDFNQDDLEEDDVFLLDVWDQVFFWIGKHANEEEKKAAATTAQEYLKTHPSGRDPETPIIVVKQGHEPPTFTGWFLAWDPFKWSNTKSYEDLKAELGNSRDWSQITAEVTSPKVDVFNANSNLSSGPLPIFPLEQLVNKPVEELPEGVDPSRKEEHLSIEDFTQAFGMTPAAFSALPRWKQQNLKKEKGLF
Procedure: Absorbance values for wells containing P-Villin contacted with GST alone were used as control, and data presented on the ordinate axis represent absorbance values after subtraction of control values.
(§1) To determine the ability of Jak3 to interact with natural compounds including biomolecules, binding studies were performed in a multiplate using the cytoskeletal protein, Villin, known in the art to be a substrate for P-Jak3. Multiplates pre-coated with P-Villin were contacted with increasing concentrations of GST-P-Jak3 fusion protein (test samples) or GST alone (control sample). Binding levels were measured using GST antibody as the primary binding partner, horse radish peroxidase conjugated antibody as the secondary binding partner and 3,3′,5,5′-tetramethylbenzidine as the colorimetric substrate. Raw absorbance data for the control samples were subtracted from the absorbance for the test samples to obtain the corrected absorbance values.
To determine whether the kinase domains of Jak3 are critical for Villin binding, recombinant GST-truncated-Jak3 fusion proteins shown in FIGS. 2C-2E were expressed in BL21 (for non-phosphorylated proteins) or TKX1 (for phosphorylated proteins) cells, and purified. Multiplates pre-coated with P-Villin were contacted with these GST-tagged recombinant truncated-Jak3 or with GST-tagged recombinant WT-Jak3, and binding measured as described supra.

[1] = biological target: T2, GST-P-Jak3 fusion protein (Mus musculus, UniProt Q62137); test: Multiplate ELISA binding of P-Villin to GST-P-Jak3
T2 construct: made in house; host or cells: E. coli TKX1 (pGEX-4T vector)
T2 sequence (Q62137 with tags, fused parts or gaps): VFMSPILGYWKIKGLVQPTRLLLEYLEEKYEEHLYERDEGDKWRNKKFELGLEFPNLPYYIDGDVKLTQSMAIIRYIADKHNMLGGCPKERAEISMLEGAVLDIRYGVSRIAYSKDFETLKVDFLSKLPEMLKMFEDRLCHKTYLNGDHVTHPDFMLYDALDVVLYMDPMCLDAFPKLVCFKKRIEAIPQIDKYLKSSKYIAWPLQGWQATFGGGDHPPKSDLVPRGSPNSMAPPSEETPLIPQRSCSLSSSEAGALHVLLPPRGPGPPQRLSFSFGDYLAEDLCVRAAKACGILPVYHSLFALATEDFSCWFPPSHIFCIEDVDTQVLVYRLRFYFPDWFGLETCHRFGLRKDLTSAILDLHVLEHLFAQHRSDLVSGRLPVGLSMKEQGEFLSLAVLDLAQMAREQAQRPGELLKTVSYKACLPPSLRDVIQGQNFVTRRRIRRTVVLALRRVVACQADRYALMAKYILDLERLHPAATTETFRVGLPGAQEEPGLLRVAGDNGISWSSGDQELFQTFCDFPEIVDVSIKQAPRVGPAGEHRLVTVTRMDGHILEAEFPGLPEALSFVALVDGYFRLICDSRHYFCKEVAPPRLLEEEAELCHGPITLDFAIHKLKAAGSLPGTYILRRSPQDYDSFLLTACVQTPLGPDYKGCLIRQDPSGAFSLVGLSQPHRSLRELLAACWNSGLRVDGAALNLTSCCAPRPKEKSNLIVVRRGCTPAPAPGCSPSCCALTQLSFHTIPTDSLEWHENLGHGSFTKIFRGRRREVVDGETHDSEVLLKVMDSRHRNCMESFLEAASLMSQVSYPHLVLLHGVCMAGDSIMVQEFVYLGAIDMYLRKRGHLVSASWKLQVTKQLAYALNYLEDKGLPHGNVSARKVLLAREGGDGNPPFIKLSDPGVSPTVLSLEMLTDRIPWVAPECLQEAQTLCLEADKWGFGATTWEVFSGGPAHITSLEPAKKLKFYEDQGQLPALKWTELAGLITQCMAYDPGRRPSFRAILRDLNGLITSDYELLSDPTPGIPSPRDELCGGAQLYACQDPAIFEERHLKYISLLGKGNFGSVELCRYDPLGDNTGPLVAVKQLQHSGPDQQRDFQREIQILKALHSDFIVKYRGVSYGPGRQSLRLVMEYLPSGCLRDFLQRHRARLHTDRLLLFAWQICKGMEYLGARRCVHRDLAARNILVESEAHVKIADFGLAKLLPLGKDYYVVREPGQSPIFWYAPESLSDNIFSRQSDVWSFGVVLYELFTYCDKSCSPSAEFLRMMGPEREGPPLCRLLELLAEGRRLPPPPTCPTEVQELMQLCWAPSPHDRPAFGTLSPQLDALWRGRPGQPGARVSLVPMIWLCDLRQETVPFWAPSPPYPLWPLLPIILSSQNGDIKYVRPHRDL
Procedure: GST is the reporter protein and the primary binding partner is a GST antibody.
as §1

Kd (P-Villin; plates pre-coated with P-Villin, read-out: dissociation constant (Kd)): 23 nM
Molecule: P-WT-Jak3: phosphorylated GST-WT-Jak3 fusion protein (SEQ ID NO: 11) expressed in TKX1

level of binding to P-Villin (P-Villin; FIG. 8A, GST-alone control subtracted): relatively lower level of binding
Molecule: WT-Jak3: non-phosphorylated GST-WT-Jak3 fusion protein (SEQ ID NO. 7) expressed in BL21

Kd ([1]; plates pre-coated with P-Villin, P-Jak3 0-400 nM, GST control subtracted, read-out: dissociation constant (Kd)): 23 nM
Hill coefficient (h) ([1]; rearranged Hill equation plot): 3.7
B1: P-Villin: recombinant phosphorylated cytoskeletal protein Villin expressed in E. coli TKX1 (protein)
chain: MTKLSAQVKGSLNITTPGLQIWRIEAMQMVPVPSSTFGSFFDGDCYIILAIHKTASSLSYDIHYWIGQDSSLDEQGAAAIYTTQMDDFLKGRAVQHREVQGNESEAFRGYFKQGLVIRKGGVASGMKHVETNSYDVQRLLHVKGKRNVVAGEVEMSWKSFNRGDVFLLDLGKLIIQWNGPESTRMERLRGMTLAKEIRDQERGGRTYVGVVDGENELASPKLMEVMNHVLGKRRELKAAVPDTVVEPALKAALKLYHVSDSEGNLVVREVATRPLTQDLLSHEDCYILDQGGLKIYVWKGKKANEQEKKGAMSHALNFIKAKQYPPSTQVEVQNDGAESAVFQQLFQKWTASNRTSGLGKTHTVGSVAKVEQVKFDATSMHVKPQVAAQQKMVDDGSGEVQVWRIENLELVPVDSKWLGHFYGGDCYLLLYTYLIGEKQHYLLYVWQGSQASQDEITASAYQAVILDQKYNGEPVQIRVPMGKEPPHLMSIFKGRMVVYQGGTSRTNNLETGPSTRLFQVQGTGANNTKAFEVPARANFLNSNDVFVLKTQSCCYLWCGKGCSGDEREMAKMVADTISRTEKQVVVEGQEPANFWMALGGKAPYANTKRLQEENLVITPRLFECSNKTGRFLATEIPDFNQDDLEEDDVFLLDVWDQVFFWIGKHANEEEKKAAATTAQEYLKTHPSGRDPETPIIVVKQGHEPPTFTGWFLAWDPFKWSNTKSYEDLKAELGNSRDWSQITAEVTSPKVDVFNANSNLSSGPLPIFPLEQLVNKPVEELPEGVDPSRKEEHLSIEDFTQAFGMTPAAFSALPRWKQQNLKKEKGLF
